Experimental data: publication PMC8622166

Experiments:
RAC3 (human), P60763 = assay: stopped-flow fluorimetry; kon from kobs against increasing GDI concentrations mixed with 0.2 µM mdGDP-bound RHO GTPase; koff by displacement with excess unlabeled GDP-bound RHO protein; Kd = koff/kon; 25 °C, 30 mM Tris/HCl pH 7.5, 10 mM K2HPO4/KH2PO4 pH 7.5, 5 mM MgCl2, 3 mM DTT; conditions: remark: other sources report otherwise
RAC2 (human), P15153 = assay: as above; conditions: remark: other sources report otherwise

- fold faster kon than GDI1 (RAC3 (human), P60763): > 10 fold
- fold slower koff than GDI1 (RAC3 (human), P60763): < 4 fold
- Kd (RAC2 (human), P15153): 18.8 µM
B1: GDI2, P52566 1-201 (natural protein)
chain: MTEKAPEPHVEEDDDDELDSKLNYKPPPQKSLKELQEMDKDDESLIKYKKTLLGDGPVVTDPKAPNVVVTRLTLVCESAPGPITMDLTGDLEALKKETIVLKEGSEYRVKIHFKVNRDIVSGLKYVQHTYRTGVKVDKATFMVGSYGPRPEEYEFLTPVEEAPKGMLARGTYHNKSFFTDDDKQDHLSWEWNLSIKKEWTE
